Test results as given in publication PMC8667020.

Molecular target: ASC^(H118A,F136A,W169A,K174A, L177A-L178A,L192A) (ASC-YFP binding site mutant) (UniProt Q9ULZ3)
Test: flow cytometry of ASC-YFP speck formation in transfected HEK293 cells
Conditions: parent: est. 37, read off a plot

Chain of ASC-YFP (Q9ULZ3 whole entry H118A/F163A/W169A/K174A/L177A/L178A/L192A, change not shown): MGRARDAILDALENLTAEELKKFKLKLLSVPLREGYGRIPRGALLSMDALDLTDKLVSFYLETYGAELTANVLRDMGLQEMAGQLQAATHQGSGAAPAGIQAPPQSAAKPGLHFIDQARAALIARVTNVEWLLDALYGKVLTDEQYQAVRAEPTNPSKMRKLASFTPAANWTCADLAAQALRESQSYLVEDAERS

other: ASC specks (%): 13%
Substance: ASC-YFP (from UniProt Q9ULZ3) H118A; F136A; W169A; K174A; L177A; L178A; L192A
